Assay results published in paper PMC5641545, “Structure and Interactions of the TPR Domain of Sgt2 with Yeast Chaperones and Ybr137wp” (Frontiers in Molecular Biosciences, 2017).

Legend:
TPR domains = conditions: ref Scheufler et al., 2000; cited from earlier work
From the text: The orientation of Hsp peptides in TPR structures varies between proteins. The conserved clamp mode of interactions is consistent, but there are some differences observed for the N-terminal parts of the peptides, which is not surprising given that the carboxylate clamp is the fixed point of attachment. The PTVEEVD peptide adopts an extended conformation within the Sgt2_TPR groove similar to that observed in the structure of the HOP TPR1/GPTIEEVD complex (Scheufler et al., [2000]). In contrast, structures of GPTIEEVD/Chip TPR [PDB: 3Q49 (Wang L. et al., [2011]) and PDB: 4KBQ Zhang et al., [2005 ...

[1] = target: Ybr137wp (Saccharomyces cerevisiae) (UniProt P38276); assay: ITC; conditions: cited from earlier work
Chain of Ybr137wp (Saccharomyces cerevisiae) (P38276 whole entry, the tested form may be a part): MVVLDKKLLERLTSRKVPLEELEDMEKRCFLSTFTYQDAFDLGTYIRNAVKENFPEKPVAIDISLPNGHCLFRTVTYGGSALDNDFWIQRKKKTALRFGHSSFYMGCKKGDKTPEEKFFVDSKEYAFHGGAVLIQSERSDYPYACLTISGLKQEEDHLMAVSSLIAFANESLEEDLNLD

[2] = target: T1, Sgt2_TPR (residues 93–229) (Saccharomyces cerevisiae, UniProt Q12118); assay: ITC binding of peptides to Sgt2_TPR (93–229); parameters: species or system S. cerevisiae; conditions: 25°C, pH 6.0, from ΔG = −RT·lnKb and ΔG = ΔH − TΔS
T1 construct: were added to Sgt2_TPR (residues 93–229) at 50 μM in the reaction cell; thioredoxin A (N, cleaved yes); hexahistidine tag (N, cleaved yes); made in house; host or cells: E. coli BL21 (DE3)
T1 sequence (Q12118 93-229): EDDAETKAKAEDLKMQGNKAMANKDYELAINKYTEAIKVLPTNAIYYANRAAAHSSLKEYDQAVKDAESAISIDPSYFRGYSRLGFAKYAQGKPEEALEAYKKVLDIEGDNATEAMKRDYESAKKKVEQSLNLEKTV

Sgt2_TPR (93–229) = target: T2, Sgt2_TPR (93–229) (S. cerevisiae, UniProt Q12118 93-229); assay: ITC; 20 injections of 2 uL of 500 uM peptide into 50 uM Sgt2_TPR (93-229) in the cell; 10 mM potassium phosphate pH 6.0, 100 mM NaCl, 250 uM TCEP, 25°C; conditions: both partners purified
T2 construct: Small glutamine-rich tetratricopeptide repeat-containing protein 2 (Sgt2), S. cerevisiae, TPR domain, residues 93-229; 15N-labelled for the NMR titrations; Cloned from synthetic cDNA into the BamHI/XhoI sites of a modified pET28; also called TPR domain of Sgt2; longer construct of Sgt2_TPR; not shown: thioredoxin A, N-terminal, cleaved; His6, N-terminal, cleaved
T2 sequence (looked up): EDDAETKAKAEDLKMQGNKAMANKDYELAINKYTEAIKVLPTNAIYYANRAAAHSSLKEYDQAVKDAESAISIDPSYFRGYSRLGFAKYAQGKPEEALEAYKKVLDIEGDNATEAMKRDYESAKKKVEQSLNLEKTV

EEVD
Fold reduction of affinity on trimming the peptide sequence to EEVD only (TPR domains): at least 10 times

Sgt2 TPR (from UniProt Q12118)
Kd [1]: 1380 nM

MEEVD [peptide corresponding to C-terminal of Hsp82; residues 705–709]
ΔS (reaction entropy) by ITC [2]: 10.9 cal/mol·deg

B1: MEEVD peptide (C-terminus of Hsp82) (peptide)
peptide: MEEVD
notes: Hsp82 (yeast Hsp90), C-terminal residues 705-709; the abstract and discussion call the parent Hsc82; also called C-terminal fragment of Hsp82; Hsc82 C-terminal peptide; source: synthetic peptide, bought: Alpha BioScience (Birmingham, UK)
Kd (Sgt2_TPR (93–229)): 2950 ± 310 nM
dH (Sgt2_TPR (93–229)): -4.51 ± 0.03 kcal/mol

B2: SLEEDLNLD peptide (C-terminus of Ybr137wp) (peptide)
peptide: SLEEDLNLD
notes: Ybr137wp, yeast, C-terminal residues 171-179; also called Ybr137wp-derived peptide; source: synthetic peptide, bought: Alpha BioScience (Birmingham, UK)
Kd (Sgt2_TPR (93–229)): 1530 ± 50 nM
dH (Sgt2_TPR (93–229)): -7.07 ± 0.99 kcal/mol

B3: PTVEEVD peptide (C-terminus of Ssa1) (peptide)
peptide: PTVEEVD
notes: Heat shock protein Ssa1 (yeast Hsp70), last seven amino acids; printed as residues 634-640; also called C-terminal peptide of Ssa1; Ssa1 derived PTVEEVD peptide; source: synthetic peptide, bought: Alpha BioScience (Birmingham, UK)
Kd (Sgt2_TPR (93–229)): 9040 ± 50 nM
dH (Sgt2_TPR (93–229)): -6.72 ± 0.07 kcal/mol
